Assays:
Assay in all cases: Kinase Profiling Assay
Type in all cases: biochemical
Details in all cases: 100 μM
cKit (h) = target: T1, cKit (h) (Homo sapiens, UniProt P10721)
T1 construct: purchased Millipore
Method in brief: (§1)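 Activity remaining relative to an uninhibited control was determined by scintillation counting of labeled substrate bound to a negatively charged filter. Radiolabeled phosphate came from ATP; the substrate carried positive charge. Duplicate measurements, within a 266-kinase human panel.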

eEF-2K (h) = target: T2, eEF-2K (h) (Homo sapiens, UniProt O00418)
T2 construct: purchased Millipore
Method in brief: as §1

TAO2 (h) = target: T3, TAO2 (h) (Homo sapiens, UniProt Q9UL54)
T3 sequence (Q9UL54 1-1235): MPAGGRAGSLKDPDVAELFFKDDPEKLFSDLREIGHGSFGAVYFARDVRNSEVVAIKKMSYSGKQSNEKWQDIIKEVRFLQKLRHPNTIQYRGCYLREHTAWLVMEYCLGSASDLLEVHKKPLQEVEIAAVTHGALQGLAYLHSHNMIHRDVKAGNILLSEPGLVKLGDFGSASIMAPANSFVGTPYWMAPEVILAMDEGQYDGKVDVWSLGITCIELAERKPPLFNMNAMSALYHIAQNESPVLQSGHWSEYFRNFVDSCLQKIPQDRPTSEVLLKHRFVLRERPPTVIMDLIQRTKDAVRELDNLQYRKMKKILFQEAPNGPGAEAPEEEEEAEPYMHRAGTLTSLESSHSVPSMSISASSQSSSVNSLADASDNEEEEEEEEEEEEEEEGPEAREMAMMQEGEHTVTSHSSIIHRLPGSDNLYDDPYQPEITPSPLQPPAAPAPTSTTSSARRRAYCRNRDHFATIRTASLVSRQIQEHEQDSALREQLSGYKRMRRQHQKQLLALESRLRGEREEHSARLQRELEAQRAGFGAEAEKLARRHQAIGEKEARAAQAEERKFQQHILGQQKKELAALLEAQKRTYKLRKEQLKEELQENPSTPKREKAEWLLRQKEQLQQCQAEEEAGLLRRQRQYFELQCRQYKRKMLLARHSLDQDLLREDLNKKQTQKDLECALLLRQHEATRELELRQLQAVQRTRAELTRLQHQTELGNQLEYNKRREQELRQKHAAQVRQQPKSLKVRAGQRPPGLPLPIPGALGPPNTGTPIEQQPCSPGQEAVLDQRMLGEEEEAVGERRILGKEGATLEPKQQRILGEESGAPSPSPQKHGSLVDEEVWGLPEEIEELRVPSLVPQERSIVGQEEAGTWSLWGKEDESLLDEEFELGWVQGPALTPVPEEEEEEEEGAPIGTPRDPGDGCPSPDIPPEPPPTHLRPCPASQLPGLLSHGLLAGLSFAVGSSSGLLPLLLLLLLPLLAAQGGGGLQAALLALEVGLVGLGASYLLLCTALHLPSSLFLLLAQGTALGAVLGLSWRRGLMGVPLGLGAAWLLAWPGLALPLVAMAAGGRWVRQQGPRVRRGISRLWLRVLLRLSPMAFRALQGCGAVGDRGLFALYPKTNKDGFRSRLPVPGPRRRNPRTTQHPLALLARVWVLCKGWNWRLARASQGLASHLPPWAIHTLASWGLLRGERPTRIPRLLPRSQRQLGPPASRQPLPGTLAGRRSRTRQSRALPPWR
Method in brief: as §1

PhKγ2 (h) = target: T4, PhKγ2 (h) (Homo sapiens, UniProt P15735)
T4 construct: purchased Millipore
T4 sequence (P15735 1-406): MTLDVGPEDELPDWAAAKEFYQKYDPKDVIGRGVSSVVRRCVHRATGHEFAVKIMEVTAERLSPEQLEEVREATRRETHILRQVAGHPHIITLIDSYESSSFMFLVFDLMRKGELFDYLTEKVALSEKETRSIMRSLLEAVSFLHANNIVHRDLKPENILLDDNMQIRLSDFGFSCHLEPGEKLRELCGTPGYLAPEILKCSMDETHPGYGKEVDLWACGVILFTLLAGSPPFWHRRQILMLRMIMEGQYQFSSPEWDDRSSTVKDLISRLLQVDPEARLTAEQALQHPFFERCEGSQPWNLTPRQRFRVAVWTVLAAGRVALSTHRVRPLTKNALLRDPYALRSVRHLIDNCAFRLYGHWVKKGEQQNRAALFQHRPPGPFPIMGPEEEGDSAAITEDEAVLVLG
Method in brief: as §1

BTK(R28H) (h) = BTK(R28H) (h) (Homo sapiens, UniProt Q06187, R28H)
Method in brief: as §1

EGFR(L861Q) (h) = target: T5, EGFR(L861Q) (h) (Homo sapiens, UniProt P00533, L861Q)
T5 construct: purchased Millipore
Method in brief: as §1

TLK2 (h) = TLK2 (h) (Homo sapiens, UniProt Q86UE8)
Method in brief: as §1

Chain of BTK(R28H) (h) (Q06187 whole entry R28H): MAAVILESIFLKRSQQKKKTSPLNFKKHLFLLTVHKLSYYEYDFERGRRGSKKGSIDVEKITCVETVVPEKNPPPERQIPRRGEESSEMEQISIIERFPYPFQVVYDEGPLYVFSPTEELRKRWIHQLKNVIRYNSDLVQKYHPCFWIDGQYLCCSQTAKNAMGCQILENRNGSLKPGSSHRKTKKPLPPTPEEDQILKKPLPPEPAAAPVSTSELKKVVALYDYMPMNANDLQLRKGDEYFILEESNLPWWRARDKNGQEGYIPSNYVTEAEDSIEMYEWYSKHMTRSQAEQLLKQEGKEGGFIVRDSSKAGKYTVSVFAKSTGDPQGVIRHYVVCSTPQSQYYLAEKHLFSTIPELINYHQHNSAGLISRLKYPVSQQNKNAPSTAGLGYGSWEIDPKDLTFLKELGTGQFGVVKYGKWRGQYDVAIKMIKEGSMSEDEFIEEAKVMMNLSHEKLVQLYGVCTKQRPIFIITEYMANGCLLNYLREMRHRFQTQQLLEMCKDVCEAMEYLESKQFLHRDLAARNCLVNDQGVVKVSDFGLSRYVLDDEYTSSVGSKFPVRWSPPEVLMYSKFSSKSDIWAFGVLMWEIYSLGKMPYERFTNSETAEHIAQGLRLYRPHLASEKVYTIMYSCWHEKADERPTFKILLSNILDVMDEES
Chain of TLK2 (h) (Q86UE8 whole entry): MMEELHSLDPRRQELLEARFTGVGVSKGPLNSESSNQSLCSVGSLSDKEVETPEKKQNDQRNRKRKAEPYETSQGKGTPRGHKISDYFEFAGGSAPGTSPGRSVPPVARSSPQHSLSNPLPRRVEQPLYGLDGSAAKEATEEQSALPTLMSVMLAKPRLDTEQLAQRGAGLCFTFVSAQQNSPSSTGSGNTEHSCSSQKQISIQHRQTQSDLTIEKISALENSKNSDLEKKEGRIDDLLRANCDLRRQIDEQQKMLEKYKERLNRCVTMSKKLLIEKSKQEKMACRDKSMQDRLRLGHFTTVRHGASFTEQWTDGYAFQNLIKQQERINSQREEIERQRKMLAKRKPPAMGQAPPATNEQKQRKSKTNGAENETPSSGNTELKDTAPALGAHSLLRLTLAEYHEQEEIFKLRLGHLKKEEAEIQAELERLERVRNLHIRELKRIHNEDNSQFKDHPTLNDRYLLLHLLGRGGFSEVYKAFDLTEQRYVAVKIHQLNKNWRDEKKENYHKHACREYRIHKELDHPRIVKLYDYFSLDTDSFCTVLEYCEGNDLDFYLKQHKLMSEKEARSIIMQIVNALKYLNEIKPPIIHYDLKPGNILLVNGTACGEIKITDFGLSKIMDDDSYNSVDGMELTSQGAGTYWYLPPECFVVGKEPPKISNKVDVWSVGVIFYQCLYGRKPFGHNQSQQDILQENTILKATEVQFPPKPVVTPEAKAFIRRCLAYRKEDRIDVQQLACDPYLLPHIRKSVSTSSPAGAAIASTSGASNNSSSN

| Sequence | % activity (cKit (h)) [%] | % activity (eEF-2K (h)) [%] | % activity (TAO2 (h)) [%] | % activity (PhKγ2 (h)) [%] | % activity (BTK(R28H) (h)) [%] | % activity (EGFR(L861Q) (h)) [%] | % activity (TLK2 (h)) [%] |
| --- | --- | --- | --- | --- | --- | --- | --- |
| FAKLAARLYRKALARQLGVAA [MMI-0300] | 53 | 91 | 70 | 46 | 74 | 25 |  |
| HRRIKAWLKKIKALARQLGVAA (Mammalian) [MMI-0500] | 45 | 43 | 15 | 16 | 10 | 15 | 133 |
| KAFAKLAARLYRKALARQLGVAA [MMI-0400] | 43 | 43 | 74 | 38 | 24 | 22 | 151 |
| YARAAARQARAKALNRQLGVA (Mammalian) [MMI-0200] | 110 |  | 93 | 86 |  | 74 | 129 |
